Values quoted from earlier work, collected in article PMC11750407.

Target: coagulation factor Xa (Homo sapiens) (UniProt P00742)
Chain of UniProt P00742 (P00742 41-179, chain 1 of 2): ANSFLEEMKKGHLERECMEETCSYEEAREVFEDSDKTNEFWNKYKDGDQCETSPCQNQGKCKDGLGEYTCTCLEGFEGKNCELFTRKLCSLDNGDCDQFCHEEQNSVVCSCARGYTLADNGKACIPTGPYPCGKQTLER
Chain of UniProt P00742 (P00742 235-488, chain 2 of 2): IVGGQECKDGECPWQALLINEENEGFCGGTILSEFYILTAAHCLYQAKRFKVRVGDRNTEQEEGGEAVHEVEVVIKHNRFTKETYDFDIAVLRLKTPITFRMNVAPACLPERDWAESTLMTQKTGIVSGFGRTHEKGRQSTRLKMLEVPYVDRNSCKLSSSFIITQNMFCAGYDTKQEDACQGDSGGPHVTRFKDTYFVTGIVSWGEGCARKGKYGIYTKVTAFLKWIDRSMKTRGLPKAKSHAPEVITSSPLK

Kd: 1000 nM
Substance: coagulation factor Va (from UniProt P12259)
